Drawing on paper PMC3744643, this text covers binding for 3 sequences.

Details in all cases: 10 mM Tris-HCl pH 7.5, 50 mM NaCl, 1 mM MgCl2, 0.5 mM EDTA, 0.5 mM DTT, 0.05 mg/ml poly(dI-dC), room temperature, 30 min; footprinting: same buffer, then …
Data set [1] concerns the target T1, His-OpaR (Vibrio parahaemolyticus RIMD 2210633) (UniProt Q79YV4).
T1 sequence: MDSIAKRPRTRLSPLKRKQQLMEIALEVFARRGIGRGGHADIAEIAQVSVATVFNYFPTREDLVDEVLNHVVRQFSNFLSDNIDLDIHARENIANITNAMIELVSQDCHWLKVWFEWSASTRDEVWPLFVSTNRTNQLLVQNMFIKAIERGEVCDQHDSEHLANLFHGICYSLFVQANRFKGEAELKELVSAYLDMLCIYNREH
In words: EMSA. For orientation: In EMSA bound probe runs differently from free probe, usually more slowly.

In data set [2] the test system is T2, His-AphA (Vibrio parahaemolyticus RIMD 2210633), ORF:4cf93ac0.
T2 sequence: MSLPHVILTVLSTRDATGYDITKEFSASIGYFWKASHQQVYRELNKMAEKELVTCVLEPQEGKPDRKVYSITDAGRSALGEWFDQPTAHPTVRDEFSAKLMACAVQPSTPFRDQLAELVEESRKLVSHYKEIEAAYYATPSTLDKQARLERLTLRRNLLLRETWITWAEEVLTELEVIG
In words: EMSA.

Data set [3] deals with T1, His-OpaR (Vibrio parahaemolyticus RIMD 2210633). In words: DNase I footprinting.
Data set [4] has as its system T2, His-AphA (Vibrio parahaemolyticus RIMD 2210633), ORF:4cf93ac0. In words: DNase I footprinting.

As to “AGCGGAGTCTTGTTTATTAACGTTTTTAGCGGGTTCAATTGCATTTTCTCTTTTTTGAGTCTTTACAATTTTTGTTTTATCTCCGCTATCGCTGCTATTTATAGATTTGTCTTTATTTTTTTCTTCCATCACAAGGACTCCATATAAATGATGGGGTTAATATATATATTCCTGCTAAATGAAAAATACTTCGGTTAGATTTTCTCG (double strand) [VPA1043 promoter probe (EMSA and footprinting)]”, the binding entry in data set [1] is “binds”; in data set [2], “no binding”; in data set [3], “binds”; in data set [4], “no binding”.
Take “GAGTTGCTTCATAATAACTATTATTAGTTATAAATATCGCTTAATTTAAATCTAATTTAAAGATATAAAGGAGCGTATTTAAAATGAAGTTTTTGATACATCAATCATTAATTATCATTATTCAGATAATTTAATTAATACGAAATATGTCAATTAATAATGCTCTAGGAGATTAGCATGCAGTCTAATACGTATCTTAAATACGCAGATATTAAAGGTGAAGCGACAGCGGAAC (double strand) [VPA1027 (hcp2) promoter footprinting probe]”: the figures for the binding entry in data set [3] and in data set [4] were “binds” and “no binding”, respectively.
For the sequence “TTGTGGAAACTCGTTATGGTCAATACCAATTTCATGAAAAACCTCGCCAAAGACCTGCTAAATATTTATATATCGATTTTTATAATTAGATTTGAAGCTTTAATTATTAACATTAAGATTAATAGAGTTCTTATAGCTGTTATAAAAACTATTGACGGCATAATGAATCATTTTTTTATCAAAGCAATCATGAATTGTTGAACAATTTTAAATATCCAACCAGGTTCAAATTTTTGACACTCAAACTTTCACCCGTCAA (double strand) [VPA1044 promoter probe (EMSA and footprinting)]”, the binding result is “binds” in data set [1], “no binding” in data set [2], “binds” in data set [3] and “no binding” in data set [4].
